This assay deals with glypican-3 (GPC3) on GPC3-positive liver cancer cell lines HepG2-C3A and Hep3B (human) (UniProt P51654). Description: flow cytometry on GPC3-positive HepG2-C3A and Hep3B cells, anti-hIgG-AF488 detection. On the technique in general: In flow cytometry, cells or beads pass a laser one at a time.
glypican-3 (GPC3) on GPC3-positive liver cancer cell lines HepG2-C3A and Hep3B (human), sequence (P51654 25-580): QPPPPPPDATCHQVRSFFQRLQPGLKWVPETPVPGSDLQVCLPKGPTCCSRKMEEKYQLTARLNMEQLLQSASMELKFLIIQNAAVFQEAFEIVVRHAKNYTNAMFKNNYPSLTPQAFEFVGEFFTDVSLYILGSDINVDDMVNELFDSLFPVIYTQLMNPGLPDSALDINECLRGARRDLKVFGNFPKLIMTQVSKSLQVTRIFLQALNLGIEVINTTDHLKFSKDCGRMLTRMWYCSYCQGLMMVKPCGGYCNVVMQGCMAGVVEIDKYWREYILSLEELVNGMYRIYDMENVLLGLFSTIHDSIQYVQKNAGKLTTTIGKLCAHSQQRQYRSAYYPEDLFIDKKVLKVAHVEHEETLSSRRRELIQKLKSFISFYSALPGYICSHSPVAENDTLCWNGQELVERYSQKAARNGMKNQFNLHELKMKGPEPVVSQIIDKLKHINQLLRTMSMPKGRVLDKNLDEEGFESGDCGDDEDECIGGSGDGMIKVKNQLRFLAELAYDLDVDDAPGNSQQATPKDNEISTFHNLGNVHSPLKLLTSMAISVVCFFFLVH

B1: ARD103 antibody (antibody, human IgG1, kappa, V domains shown)
VH: QVQLVESGAEVKKPGASVKVSCKASGYTFTDYEMHWVRQAPGQGLEWMGALDPKTGDTAYSQKFKGRVTLTADKSTSTAYMELSSLTSEDTAVYYCTRFYSYTYWGQGTLVTVSS
VL: DVVMTQSPLSLPVTPGEPASISCRSSQSLVHSNGNTYLHWYLQKPGQSPQLLIYKVSNRFSGVPDRFSGSGSGTDFTLKISRVEAEDVGVYYCSQNTHVPPTFGQGTKLEIKR
In the case of B1, the EC50 (usually the concentration giving half of the maximal effect) was in the range of 3.5 to 4 nM.

The values are drawn from patent publication US20240024499A1.
